Source: the supplement of paper PMC11246515
± gives the standard deviation of the averaged measurements.

Assay: total protein half-life in vivo (active degradation + dilution); higher = more stable protein
[1] = E. coli NCM3722 delta-clpP delta-lon delta-hslV, growth: N-lim chemostat, doubling time 6 h
[2] = E. coli NCM3722 delta-clpP, growth: N-lim chemostat, doubling time 6 h
[3] = E. coli NCM3722 delta-hslV, growth: N-lim chemostat, doubling time 6 h
[4] = E. coli NCM3722 delta-lon, growth: N-lim chemostat, doubling time 6 h
[5] = E. coli NCM3722 delta-smpB, growth: N-lim chemostat, doubling time 6 h
[6] = wild type E. coli NCM3722, growth: C-lim chemostat, doubling time 3 h
[7] = wild type E. coli NCM3722, growth: C-lim chemostat, doubling time 6 h
[8] = wild type E. coli NCM3722, growth: C-lim chemostat, doubling time 12 h
[9] = wild type E. coli NCM3722, growth: N-lim chemostat, doubling time 6 h
[10] = wild type E. coli NCM3722, growth: N-lim chemostat, doubling time 12 h
[11] = wild type E. coli NCM3722, growth: P-lim chemostat, doubling time 6 h
[12] = wild type E. coli NCM3722, growth: P-lim chemostat, doubling time 12 h

Sequence | total protein half-life in vivo [1] [h] | total protein half-life in vivo [2] [h] | total protein half-life in vivo [3] [h] | total protein half-life in vivo [4] [h] | total protein half-life in vivo [5] [h] | total protein half-life in vivo [6] [h] | total protein half-life in vivo [7] [h] | total protein half-life in vivo [8] [h] | total protein half-life in vivo [9] [h] | total protein half-life in vivo [10] [h] | total protein half-life in vivo [11] [h] | total protein half-life in vivo [12] [h]
MKPSVILYKALPDDLLQRLQEHFTVHQVANLSPQTVEQNAAIFAEAEGLLGSNENVNAALLEKMPKLRATSTISVGYDNFDVDALTARKILLMHTPTVLTETVADTLMALVLSTARRVVEVAERVKAGEWTASIGPDWYGTDVHHKTLGIVGMGRIGMALAQRAHFGFNMPILYNARRHHKEAEERFNARYCDLDTLLQESDFVCLILPLTDETHHLFGAEQFAKMKSSAIFINAGRGPVVDENALIAALQKGEIHAAGLDVFEQEPLSVDSPLLSMANVVAVPHIGSATHETRYGMAACAVDNLIDALQGKVEKNCVNPHVAD | 4.9 ± 1.3 | 4.12 ± 0.17 | 3.82 ± 0.29 | 5.02 ± 0.68 | 3.89 ± 0.12 | 2.95 ± 0.11 | 5.5 ± 0.48 | 8.92 ± 0.31 | 4.03 ± 0.16 | 6.22 ± 0.18 | 5.53 ± 0.1 | 11.1 ± 0.45
MSVRNIFADESHDIYTVRTHADGPDGELPLTAEMLINRPSGDLFGMTMNAGMGWSPDELDRDGILLLSTLGGLRGADGKPVALALHQGHYELDIQMKAAAEVIKANHALPYAVYVSDPCDGRTQGTTGMFDSLPYRNDASMVMRRLIRSLPDAKAVIGVASCDKGLPATMMALAAQHNIATVLVPGGATLPAKDGEDNGKVQTIGARFANGELSLQDARRAGCKACASSGGGCQFLGTAGTSQVVAEGLGLAIPHSALAPSGEPVWREIARASARAALNLSQKGITTREILTDKAIENAMTVHAAFGGSTNLLLHIPAIAHQAGCHIPTVDDWIRINKRVPRLVSVLPNGPVYHPTVNAFMAGGVPEVMLHLRSLGLLHEDVMTVTGSTLKENLDWWEHSERRQRFKQLLLDQEQINADEVIMSPQQAKARGLTSTITFPVGNIAPEGSVIKSTAIDPSMIDEQGIYYHKGVAKVYLSEKSAIYDIKHDKIKAGDILVIIGVGPSGTGMEETYQVTSALKHLSYGKHVSLITDARFSGVSTGACIGHVGPEALAGGPIGKLRTGDLIEIKIDCRELHGEVNFLGTRSDEQLPSQEEATAILNARPSHQDLLPDPELPDDTRLWAMLQAVSGGTWTGCIYDVNKIGAALRDFMNKN | 4.08 ± 0.67 | 3.14 | 3.82 ± 0.38 | 4.55 ± 0.14 | 3.33 ± 0.14 |  | 5.0317 ± 0.00062 | 8.896 ± 0.017 | 3.48 ± 0.52 | 4.88 ± 1.1 | 5.43 ± 0.13 | 10.1 ± 0.58
MERVSITERPDWREKAHEYGFNFHTMYGEPYWCEDAYYKLTLAQVEKLEEVTAELHQMCLKVVEKVIASDELMTKFRIPKHTWSFVRQSWLTHQPSLYSRLDLAWDGTGEPKLLENNADTPTSLYEAAFFQWIWLEDQLNAGNLPEGSDQFNSLQEKLIDRFVELREQYGFQLLHLTCCRDTVEDRGTIQYLQDCATEAEIATEFLYIDDIGLGEKGQFTDLQDQVISNLFKLYPWEFMLREMFSTKLEDAGVRWLEPAWKSIISNKALLPLLWEMFPNHPNLLPAYFAEDDHPQMEKYVVKPIFSREGANVSIIENGKTIEAAEGPYGEEGMIVQQFHPLPKFGDSYMLIGSWLVNDQPAGIGIREDRALITQDMSRFYPHIFVE [P0ADT5] |  | 4.7 ± 0.6 | 4.25 ± 0.46 | 4.93 ± 0.34 | 4.3 ± 0.17 | 3.13 ± 0.18 | 5.78 ± 1 | 9.63 ± 0.61 | 4.46 ± 0.15 | 8.2 ± 1 | 5.65 ± 0.24 | 11.5 ± 0.2
MTIHKKGQAHWEGDIKRGKGTVSTESGVLNQQPYGFNTRFEGEKGTNPEELIGAAHAACFSMALSLMLGEAGFTPTSIDTTADVSLDKVDAGFAITKIALKSEVAVPGIDASTFDGIIQKAKAGCPVSQVLKAEITLDYQLKS [P0C0L2] | 5.71 ± 0.14 | 5.45 ± 0.62 | 5.59 ± 0.41 | 5.84 ± 0.083 | 4.963 ± 0.042 | 3.08 ± 0.62 | 6.63 ± 0.81 | 12.1 ± 0.22 | 5.3 ± 0.28 | 9.59 ± 0.6 | 5.84 ± 0.082 | 12.6 ± 0.93
MKVAKDLVVSLAYQVRTEDGVLVDESPVSAPLDYLHGHGSLISGLETALEGHEVGDKFDVAVGANDAYGQYDENLVQRVPKDVFMGVDELQVGMRFLAETDQGPVPVEITAVEDDHVVVDGNHMLAGQNLKFNVEVVAIREATEEELAHGHVHGAHDHHHDHDHDGCCGGHGHDHGHEHGGEGCCGGKGNGGCGCH [P0A9K9] | 4.87 ± 0.55 | 4.07 ± 0.042 | 3.46 ± 0.26 | 4.18 ± 0.1 | 3.3811 ± 0.00031 | 2.88 ± 0.18 | 4.63 ± 0.15 | 8.14 ± 0.37 | 3.47 ± 0.24 | 5.28 ± 0.73 | 4.54 ± 0.53 | 8.69 ± 0.066
MKNVGDLMQRLQKMMPAHIKPAFKTGEELLAWQKEQGAIRSAALERENRAMKMQRTFNRSGIRPLHQNCSFENYRVECEGQMNALSKARQYVEEFDGNIASFIFSGKPGTGKNHLAAAICNELLLRGKSVLIITVADIMSAMKDTFRNSGTSEEQLLNDLSNVDLLVIDEIGVQTESKYEKVIINQIVDRRSSSKRPTGMLTNSNMEEMTKLLGERVMDRMRLGNSLWVIFNWDSYRSRVTGKEY [P0AEF0] | 3.95 ± 0.25 | 2.75 ± 0.059 | 2.11 ± 0.34 | 2.64 ± 0.32 | 2.33 ± 0.07 | 2.05 ± 0.26 | 4.67 ± 0.49 | 5.08 ± 0.67 | 2.18 ± 0.26 | 3.42 ± 0.18 | 3.49 ± 0.45 | 7.41 ± 2.5
MTNLNYQQTHFVMSAPDIRHLPSDTGIEVAFAGRSNAGKSSALNTLTNQKSLARTSKTPGRTQLINLFEVADGKRLVDLPGYGYAEVPEEMKRKWQRALGEYLEKRQSLQGLVVLMDIRHPLKDLDQQMIEWAVDSNIAVLVLLTKADKLASGARKAQLNMVREAVLAFNGDVQVETFSSLKKQGVDKLRQKLDTWFSEMQPVEETQDGE [P0A6P7] | 5.33 ± 0.22 | 6.45 ± 1.6 | 5.05 ± 0.074 | 5.83 ± 0.38 | 5.19 ± 0.42 | 2.924 ± 0.022 | 5.58 ± 0.19 | 11.2 ± 0.46 | 5.08 ± 0.32 | 9.45 ± 0.2 | 5.59 ± 0.11 | 11.4 ± 0.91
